This note sets out measurements from paper PMC5913134, “The IL-33-PIN1-IRAK-M axis is critical for type 2 immunity in IL-33-induced allergic airway inflammation” (Nature Communications, 2018).

Where no end group is shown, it is not given here. [ ]: non-standard residue; d: D form. pS = N[C@@H](COP(=O)(O)O)C(=O)O

For the assay, the target named is T1, 15N-labeled PIN1 WW domain (PIN1 residues 1-50) (UniProt Q13526 1-50).
T1 construct: PIN1 residues 1-50 (WW domain); The methods describe a pET28 His6-TEV construct for PIN1; also called 15N-PIN1-WW; source: expressed and purified, 15N-labeled
T1 sequence (Q13526 1-50): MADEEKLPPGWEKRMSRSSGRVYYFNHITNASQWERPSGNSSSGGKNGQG
The assay is described as follows: NMR titration; 1H-15N HSQC of 15N-PIN1-WW at constant concentration, peptide serially diluted (reverse titration), 25 °C, 600 MHz; fit to a simple bimolecular model; apparent. Conditions: both partners purified.

B1: IRAK-M-pS110 peptide (IRAK-M residues 103-124 with Ser110 phosphorylated) (peptide)
peptide: TNYGAVL[pS]PSEKSYQEGGFPNI
notes: IRAK-M (IRAK3) residues 103-124; also called IRAK-M phosphopeptide; pIRAK-M-pS110; source: synthetic peptide (Tufts University Core Facility)
B1: the Kd is 60.7 µM.
